Assay [1] has as its target Human Serum Albumin (HSA) (human, UniProt P02768 25-609). Kind of assay: yeast display selection.
The next assay has as its target T1, hen egg white lysozyme (hen, UniProt P00698 19-147, biotinylated (HEL-b); sites not stated).
T1 construct: also called lyzozyme; HEL-b (biotinylated)
Kind of assay: yeast display selection.

37 molecules from patent US9296810 (Novartis, dated 2016) can be followed below.

Residue numbers refer to the chain shown, from its start.

T1 sequence (P00698 19-147 limits assumed): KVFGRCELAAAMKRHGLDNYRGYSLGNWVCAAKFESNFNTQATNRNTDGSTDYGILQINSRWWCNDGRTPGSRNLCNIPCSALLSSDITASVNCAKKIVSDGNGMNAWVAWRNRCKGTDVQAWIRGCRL
Human Serum Albumin (HSA), sequence (P02768 25-609 limits assumed): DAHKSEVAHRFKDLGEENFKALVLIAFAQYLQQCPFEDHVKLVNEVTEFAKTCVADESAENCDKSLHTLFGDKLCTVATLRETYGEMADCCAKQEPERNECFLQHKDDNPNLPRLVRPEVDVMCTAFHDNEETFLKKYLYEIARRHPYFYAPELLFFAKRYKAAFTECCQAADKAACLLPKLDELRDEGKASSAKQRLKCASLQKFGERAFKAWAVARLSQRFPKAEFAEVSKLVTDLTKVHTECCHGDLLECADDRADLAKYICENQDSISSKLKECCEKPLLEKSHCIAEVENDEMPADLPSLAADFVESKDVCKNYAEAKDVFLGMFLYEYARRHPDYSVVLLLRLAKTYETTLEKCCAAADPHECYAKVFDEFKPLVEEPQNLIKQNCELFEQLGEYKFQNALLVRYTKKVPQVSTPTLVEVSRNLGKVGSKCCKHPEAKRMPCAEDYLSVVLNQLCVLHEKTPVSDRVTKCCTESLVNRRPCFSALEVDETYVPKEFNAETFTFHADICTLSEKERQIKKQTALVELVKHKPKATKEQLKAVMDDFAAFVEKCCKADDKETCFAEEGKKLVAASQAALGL

B1: SEQ ID NO 11 (designed binder)
chain: VSDVPRDLEVVAATPTSLLISWDAPAVTVRYYRITYGKKDRASHLKEFTVPGSKSTATIGHIKGGYDYTITVYAVTGRGDSPASSKPISINYSGEP
With B1, the binding result in assay [1] was “binds”.

B2: SEQ ID NO 76 (designed binder)
chain: VSDVPRDLEVVAATPTSLLISWDAPAVTVRYYRITYGESSGRYRQEFTVPGSKSTATISRYPHGVDYTITVYAVTGRGESPASSKPISINYAKNV
For the molecule B2, in the assay with hen egg white lysozyme, the binding result is “binds”.

B3: SEQ ID NO 83 (designed binder)
chain: VSDVPRDLEVVAATPTSLLISWDAPAVTVRYYRITYGEAHEYYYQEFTVPGSKSTATISRSSSSVDYTITVYAVTGRGESPASSKPISINYYGRY
As to B3, in the assay with hen egg white lysozyme, the binding result was “binds”.

B4: SEQ ID NO 73 (designed binder)
chain: VSDVPRDLEVVAATPTSLLISWDAPAVTVRYYRITYGERGYPGQEFTVPGSKSTATISEYSHSVDYTITVYAVTGRGESPASSKPISINYAQYQ
As to B4, the binding result in the assay with hen egg white lysozyme is given as “binds”.

B5: SEQ ID NO 86 (designed binder)
chain: VSDVPRDLEVVAATPTSLLISWDAPAVTVRYYRITYGELPSQGRQEFTVPGSKSTATISYRRELVDYTITVYAVTGRGESPASSKPISINYGSSY
As to B5, the binding result in the assay with hen egg white lysozyme was “binds”.

B6: SEQ ID NO 62 (designed binder)
chain: VSDVPRDLEVVAATPTSLLISWDAPAVTVRYYRITYGEAASSRLRQEFTVPGSKSTATISSYSGLVDYTITVYAVTGRGESPASSKPISINYYSSY
B6: in the assay with hen egg white lysozyme, the binding result is given as “binds”.

B7: SEQ ID NO 10 (designed binder)
chain: VSDVPRDLEVVAATPTSLLISWDAPAVTVRYYRITYGKTGHKSSDHEFTVPGSKSTATIGGMKGGVDYTITVYAVTGRGDSPASSKPISINYRFER
With B7, the binding result in assay [1] was “binds”.

B8: SEQ ID NO 7 (designed binder)
chain: VSDVPRDLEVVAATPTSLLISWDAPAVTVRYYRITYGKTEGHRHSHEFTVPGSKSTATISGLKHGDDYTITVYAVTGRGDSPASSKPISINYRMEK
Turning to B8, the binding result in assay [1] is reported as “binds”.

B9: SEQ ID NO 57 (designed binder)
chain: VSDVPRDLEVVAATPTSLLISWDAPAVTVRYYRITYGEGSLLYHSQEFTVPGSKSTATISYGPASVDYTITVYAVTGRGESPASSKPISINYRRRY
In the case of B9, the binding result with hen egg white lysozyme is given as “binds”.

B10: SEQ ID NO 67 (designed binder)
chain: VSDVPRDLEVVAATPTSLLISWDAPAVTVRYYRITYGEYYARPEYQEFTVPGSKSTATISYYEPEVDYTITVYAVTGRGESPASSKPISINYRSYP
As to B10, the binding result with hen egg white lysozyme was “binds”.

B11: SEQ ID NO 79 (designed binder)
chain: VSDVPRDLEVVAATPTSLLISWDAPAVTVRYYRITYGERRRRYGQEFTVPGSKSTATISSRSRGVDYTITVYAVTGRGESPASSKPISINYLYPY
Take B11: the binding result with hen egg white lysozyme is “binds”.

B12: SEQ ID NO 61 (designed binder)
chain: VSDVPRDLEVVAATPTSLLISWDAPAVTVRYYRITYGEPRSEEGEQEFTVPGSKSTATISRRYSLVDYTITVYAVTGRGESPASSKPISINYYSSR
Consider B12, for which, in the assay with hen egg white lysozyme, the binding result is “binds”.

B13: SEQ ID NO 54 (designed binder)
chain: VSDVPRDLEVVAATPTSLLISWDAPAVTVRYYRITYGESLRSREGQEFTVPGSKSTATISGRQESVDYTITVYAVTGRGESPASSKPISINYGQRY
On to B13, for which the binding result with hen egg white lysozyme is reported as “binds”.

B14: SEQ ID NO 66 (designed binder)
chain: VSDVPRDLEVVAATPTSLLISWDAPAVTVRYYRITYGEYYRSYYQEFTVPGSKSTATISSYEPPVDYTITVYAVTGRGESPASSKPISINYRRYL
On to B14, for which the binding result with hen egg white lysozyme is given as “binds”.

B15: SEQ ID NO 77 (designed binder)
chain: B14 chain with Y40R, S42R, Y43A, Y44R, S60E, Y61H, P64L, R92Y, R93S, L95Y
B15: in the assay with hen egg white lysozyme, the binding result is on record as “binds”.

B16: SEQ ID NO 80 (designed binder)
chain: B14 chain with Y39S, Y40R, Y44P, Y61S, E62H, P63R, P64S, R93S
B16: in the assay with hen egg white lysozyme, the binding result was “binds”.

B17: SEQ ID NO 65 (designed binder)
chain: VSDVPRDLEVVAATPTSLLISWDAPAVTVRYYRITYGERLREGGSQEFTVPGSKSTATISRAGERVDYTITVYAVTGRGESPASSKPISINYAQYP
As to B17, in the assay with hen egg white lysozyme, the binding result is “binds”.

B18: SEQ ID NO 75 (designed binder)
chain: VSDVPRDLEVVAATPTSLLISWDAPAVTVRYYRITYGEYGGSQAQEFTVPGSKSTATISREYGSVDYTITVYAVTGRGESPASSKPISINYALGE
Turning to B18, the binding result in the assay with hen egg white lysozyme is on record as “binds”.

B19: SEQ ID NO 78 (designed binder)
chain: VSDVPRDLEVVAATPTSLLISWDAPAVTVRYYRITYGEQRARSRQEFTVPGSKSTATISEQRRRVDYTITVYAVTGRGESPASSKPISINYRALL
As to B19, in the assay with hen egg white lysozyme, the binding result is “binds”.

B20: SEQ ID NO 70 (designed binder)
chain: VSDVPRDLEVVAATPTSLLISWDAPAVTVRYYRITYGESHQGLSYQEFTVPGSKSTATISPGSSSVDYTITVYAVTGRGESPASSKPISINYRYYR
Take B20: the binding result with hen egg white lysozyme is “binds”.

B21: SEQ ID NO 55 (designed binder)
chain: VSDVPRDLEVVAATPTSLLISWDAPAVTVRYYRITYGEGQGAGASQEFTVPGSKSTATISGAEPAVDYTITVYAVTGRGESPASSKPISINYGPRY
B21: the binding result in the assay with hen egg white lysozyme was “binds”.

B22: SEQ ID NO 84 (designed binder)
chain: VSDVPRDLEVVAATPTSLLISWDAPAVTVRYYRITYGEAGYSGGQEFTVPGSKSTATISERAEYVDYTITVYAVTGRGESPASSKPISINYERRY
In the case of B22, the binding result in the assay with hen egg white lysozyme was “binds”.

B23: SEQ ID NO 85 (designed binder)
chain: B22 chain with A39L, G40S, Y41R, G44S, E60G, R61S, A62Y, E63G, R93Q, R94S
For the molecule B23, the binding result with hen egg white lysozyme is on record as “binds”.

B24: SEQ ID NO 81 (designed binder)
chain: VSDVPRDLEVVAATPTSLLISWDAPAVTVRYYRITYGESHHYGPQEFTVPGSKSTATISLLGAHVDYTITVYAVTGRGESPASSKPISINYHGLY
In the case of B24, in the assay with hen egg white lysozyme, the binding result was “binds”.

B25: SEQ ID NO 58 (designed binder)
chain: VSDVPRDLEVVAATPTSLLISWDAPAVTVRYYRITYGESSHGRSQEFTVPGSKSTATISSSSSRVDYTITVYAVTGRGESPASSKPISINYGYRG
In the case of B25, the binding result with hen egg white lysozyme was “binds”.

B26: SEQ ID NO 59 (designed binder)
chain: B25 chain with S39Y, S40G, H41Y, G42S, S60Y, S63P, Y93S, G95Y
With B26, the binding result in the assay with hen egg white lysozyme is “binds”.

B27: SEQ ID NO 71 (designed binder)
chain: VSDVPRDLEVVAATPTSLLISWDAPAVTVRYYRITYGERGSGLGYQEFTVPGSKSTATISSRAYRVDYTITVYAVTGRGESPASSKPISINYALYE
For the molecule B27, the binding result in the assay with hen egg white lysozyme is “binds”.

B28: SEQ ID NO 12 (designed binder)
chain: VSDVPRDLEVVAATPTSLLISWDAPAVTVRYYRITYGRTKGKSKLKEFTVPGSKSTATIPGLKQGEDYTITVYAVTGRGDSPASSKPISINYMFER
As for B28, in assay [1], the binding result is “binds”.

B29: SEQ ID NO 9 (designed binder)
chain: VSDVPRDLEVVAATPTSLLISWDAPAVTVRYYRITYGQLDKKHHDAEFTVPGSKSTATITRLKRGRDYTITVYAVTGRGDSPASSKPISINYSPER
On to B29, for which, in assay [1], the binding result was “binds”.

B30: SEQ ID NO 63 (designed binder)
chain: VSDVPRDLEVVAATPTSLLISWDAPAVTVRYYRITYGERERQHGYQEFTVPGSKSTATISRYRRRVDYTITVYAVTGRGESPASSKPISINYEPGY
In the case of B30, the binding result with hen egg white lysozyme is “binds”.

B31: SEQ ID NO 53 (designed binder)
chain: VSDVPRDLEVVAATPTSLLISWDAPAVTVRYYRITYGESSPEYRGQEFTVPGSKSTATISLEEYEVDYTITVYAVTGRGESPTSSKPISINYQYRY
Regarding B31, the binding result in the assay with hen egg white lysozyme is recorded as “binds”.

B32: SEQ ID NO 74 (designed binder)
chain: VSDVPRDLEVVAATPTSLLISWDAPAVTVRYYRITYGEYEPYGSQYQEFTVPGSKSTATISERQHAVDYTITVYAVTGRGESPASSKPISINYRRYE
For B32, the binding result in the assay with hen egg white lysozyme was “binds”.

B33: SEQ ID NO 56 (designed binder)
chain: VSDVPRDLEVVAATPTSLLISWDAPAVTVRYYRITYGEYLYHHGQEFTVPGSKSTATISYRSAPVDYTITVYAVTGRGESPASSKPISINYRHER
On to B33, for which the binding result with hen egg white lysozyme is listed as “binds”.

B34: SEQ ID NO 69 (designed binder)
chain: VSDVPRDLEVVAATPTSLLISWDAPAVTVRYYRITYGEYRSSSYYQEFTVPGSKSTATISYPSERVDYTITVYAVTGRGESPASSKPISINYQSSA
As for B34, the binding result in the assay with hen egg white lysozyme is reported as “binds”.

B35: SEQ ID NO 60 (designed binder)
chain: VSDVPRDLEVVAATPTSLLISWDAPAVTVRYYRITYGEYRYAYAYGQEFTVPGSKSTATISRSSPRVDYTITVYAVTGRGESPASSKPISINYPRRY
Consider B35, for which the binding result in the assay with hen egg white lysozyme was “binds”.

B36: SEQ ID NO 64 (designed binder)
chain: VSDVPRDLEVVAATPTSLLISWDAPAVTVRYYRITYGERRSHRERQEFTVPGSKSTATISRRRRRVDYTITVYAVTGRGESPASSKPISINYSRRR
With B36, the binding result with hen egg white lysozyme was “binds”.

B37: SEQ ID NO 72 (designed binder)
chain: VSDVPRDLEVVAATPTSLLISWDAPAVTVRYYRITYGERGGYSSQEFTVPGSKSTATISSRYRQVDYTITVYAVTGRGESPASSKPISINYQSYS
Regarding B37, in the assay with hen egg white lysozyme, the binding result is reported as “binds”.
